Data set [1] addresses T1, QTRT1 (catalytic subunit of TGT);QTRT2 (accessory subunit of TGT) (Mus musculus;Mus musculus, UniProt Q9JMA2;B8ZXI1 1-403;1-415, |). Put plainly: MST; no 9dG; MST: 20 mM HEPES pH 7.5, 75 mM NaCl, 1 mM MgCl2, 0.025% Tween 20, 2 mM DTT, 50 nM Cy5-tRNA, 25 C, +/-100 uM 9dG; EMSA: same buffer without Tween, 100 uM 9dG, 200 nM tRNA, 4 C, 6% native gel. The conditions noted are these: protein: recombinant;recombinant, copies: 1;1, label: Cy5-cytosine incorporated during transcription (MST, EMSA).

The target in data set [2] is T1, QTRT1 (catalytic subunit of TGT);QTRT2 …. The data set is described as follows: MST; 100 uM 9-deazaguanine; apparent Kd (covalent trapping; review file cites 1.2); MST: 20 mM HEPES pH 7.5, 75 mM NaCl, 1 mM MgCl2, 0.025% Tween 20, 2 mM DTT, 50 nM Cy5-tRNA, 25 C, +/-100 uM 9dG; EMSA: same buffer without Tween, 100 uM 9dG, 200 nM tRNA, 4 C, 6% native gel. As to conditions: protein: recombinant;recombinant; copies: 1;1; label: Cy5-cytosine incorporated during transcription (MST, EMSA); tRNA cloverleaf.

Data set [3] shares this target. The data set is described as follows: MST; 100 uM 9-deazaguanine; apparent Kd (covalent trapping); MST: 20 mM HEPES pH 7.5, 75 mM NaCl, 1 mM MgCl2, 0.025% Tween 20, 2 mM DTT, 50 nM Cy5-tRNA, 25 C, +/-100 uM 9dG; EMSA: same buffer without Tween, 100 uM 9dG, 200 nM tRNA, 4 C, 6% native gel. The conditions noted are these: protein: recombinant;recombinant; copies: 1;1; label: Cy5-cytosine incorporated during transcription (MST, EMSA); tRNA cloverleaf with intron in anticodon loop.

The target is the same in data set [4]. The data set is described as follows: MST; 9-deazaguanine; apparent Kd from peer review file; MST: 20 mM HEPES pH 7.5, 75 mM NaCl, 1 mM MgCl2, 0.025% Tween 20, 2 mM DTT, 50 nM Cy5-tRNA, 25 C, +/-100 uM 9dG; EMSA: same buffer without Tween, 100 uM 9dG, 200 nM tRNA, 4 C, 6% native gel. The conditions noted are these: protein: recombinant;recombinant; copies: 1;1; label: Cy5-cytosine incorporated during transcription (MST); tRNA cloverleaf with intron in anticodon loop. For orientation: In EMSA bound probe runs differently from free probe, usually more slowly.

Data set [5] shares this target. Put plainly: MST; no 9dG; value from peer review file (main text calls 2-1 slightly weaker); MST: 20 mM HEPES pH 7.5, 75 mM NaCl, 1 mM MgCl2, 0.025% Tween 20, 2 mM DTT, 50 nM Cy5-tRNA, 25 C, +/-100 uM 9dG; EMSA: same buffer without Tween, 100 uM 9dG, 200 nM tRNA, 4 C, 6% native gel. As to conditions: protein: recombinant;recombinant; copies: 1;1; label: Cy5-cytosine incorporated during transcription (MST); tRNA cloverleaf with intron in anticodon loop.

T1 sequence (Q9JMA2 whole entry, chain 1 of 2): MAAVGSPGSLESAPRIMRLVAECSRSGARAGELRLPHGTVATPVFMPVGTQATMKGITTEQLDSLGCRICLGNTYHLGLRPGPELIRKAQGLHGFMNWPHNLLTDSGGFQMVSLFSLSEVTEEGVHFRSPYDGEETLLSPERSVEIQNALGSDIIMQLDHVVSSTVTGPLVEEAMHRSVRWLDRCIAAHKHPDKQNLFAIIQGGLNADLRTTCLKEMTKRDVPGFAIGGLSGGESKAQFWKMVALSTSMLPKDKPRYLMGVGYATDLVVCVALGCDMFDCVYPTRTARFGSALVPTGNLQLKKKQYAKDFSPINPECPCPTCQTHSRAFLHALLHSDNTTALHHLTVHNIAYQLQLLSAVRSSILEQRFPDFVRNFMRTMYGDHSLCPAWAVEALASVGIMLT
T1 sequence (B8ZXI1 whole entry, chain 2 of 2): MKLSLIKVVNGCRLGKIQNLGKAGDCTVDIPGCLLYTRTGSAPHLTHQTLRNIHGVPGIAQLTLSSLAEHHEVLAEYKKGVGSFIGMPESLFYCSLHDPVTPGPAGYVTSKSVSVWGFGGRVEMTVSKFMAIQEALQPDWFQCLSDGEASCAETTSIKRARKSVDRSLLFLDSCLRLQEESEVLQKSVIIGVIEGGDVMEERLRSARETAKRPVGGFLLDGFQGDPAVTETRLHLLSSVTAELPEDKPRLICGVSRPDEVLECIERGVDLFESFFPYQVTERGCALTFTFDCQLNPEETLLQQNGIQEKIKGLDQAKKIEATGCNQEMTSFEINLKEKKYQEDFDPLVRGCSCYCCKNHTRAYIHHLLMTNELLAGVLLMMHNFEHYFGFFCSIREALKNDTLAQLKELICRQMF

B1: m_tRNATyr (mature, GUA) (structured_RNA)
RNA: GGCCUUCGAUAGCUCAGUUGGUAGAGCGGAGGACUGUAGAUCCUUAGGUCGCUGGUUCGAAUCCGGCUCGAAGGA
modifications: none (unmodified transcript)
With B1, the Kd was 2400 ± 700 nM in data set [1] (tRNA cloverleaf) and 1100 ± 300 nM in data set [2].

B2: m_pre-tRNATyr 1-4 (intron-containing) (structured_RNA)
RNA: GGCCUUCGAUAGCUCAGUUGGUAGAGCGGAGGACUGUAGGUCAUUGUUCUAGAAAUCCUUAGGUCGCUGGUUCGAAUCCGGCUCGAAGGA
modifications: none (unmodified transcript)
As to B2, the Kd in data set [1] (tRNA cloverleaf with intron in anticodon loop) is 6000 ± 700 nM; in data set [3], 2400 ± 200 nM.

B3: m_pre-tRNATyr 2-1 (intron-containing) (structured_RNA)
RNA: GGCCUUCGAUAGCUCAGUUGGUAGAGCGGAGGACUGUAGUCAGUACAAUAUGGUAAUCCUUAGGUCGCUGGUUCGAUUCCGGCUCGAAGGA
modifications: none (unmodified transcript)
For B3, the Kd in data set [4] worked out at 1400 nM; in data set [5], 2700 nM.

The values above are taken from paper PMC12313893, “Queuosine is incorporated into precursor tRNA before splicing”.
